Test results as given in publication PMC10398351 (2023).

Assays:
Experiment in all cases: SPR
[1] = target: MUC1-ST (4) (UniProt P15941, ST antigen (Neu5Acα2,3Galβ1,3GalNAcα) on the Thr of the Asp-Thr-Arg-Pro moiety)
[2] = target: MUC1 TRD-Tn (3) (UniProt P15941, Tn antigen (GalNAcα) on the Thr of the Asp-Thr-Arg-Pro moiety)
[3] = target: non-glycosylated MUC1 TRD (2) (UniProt P15941)
non-glycosylated MUC1 TRD (2), sequence (P15941 whole entry, looked up): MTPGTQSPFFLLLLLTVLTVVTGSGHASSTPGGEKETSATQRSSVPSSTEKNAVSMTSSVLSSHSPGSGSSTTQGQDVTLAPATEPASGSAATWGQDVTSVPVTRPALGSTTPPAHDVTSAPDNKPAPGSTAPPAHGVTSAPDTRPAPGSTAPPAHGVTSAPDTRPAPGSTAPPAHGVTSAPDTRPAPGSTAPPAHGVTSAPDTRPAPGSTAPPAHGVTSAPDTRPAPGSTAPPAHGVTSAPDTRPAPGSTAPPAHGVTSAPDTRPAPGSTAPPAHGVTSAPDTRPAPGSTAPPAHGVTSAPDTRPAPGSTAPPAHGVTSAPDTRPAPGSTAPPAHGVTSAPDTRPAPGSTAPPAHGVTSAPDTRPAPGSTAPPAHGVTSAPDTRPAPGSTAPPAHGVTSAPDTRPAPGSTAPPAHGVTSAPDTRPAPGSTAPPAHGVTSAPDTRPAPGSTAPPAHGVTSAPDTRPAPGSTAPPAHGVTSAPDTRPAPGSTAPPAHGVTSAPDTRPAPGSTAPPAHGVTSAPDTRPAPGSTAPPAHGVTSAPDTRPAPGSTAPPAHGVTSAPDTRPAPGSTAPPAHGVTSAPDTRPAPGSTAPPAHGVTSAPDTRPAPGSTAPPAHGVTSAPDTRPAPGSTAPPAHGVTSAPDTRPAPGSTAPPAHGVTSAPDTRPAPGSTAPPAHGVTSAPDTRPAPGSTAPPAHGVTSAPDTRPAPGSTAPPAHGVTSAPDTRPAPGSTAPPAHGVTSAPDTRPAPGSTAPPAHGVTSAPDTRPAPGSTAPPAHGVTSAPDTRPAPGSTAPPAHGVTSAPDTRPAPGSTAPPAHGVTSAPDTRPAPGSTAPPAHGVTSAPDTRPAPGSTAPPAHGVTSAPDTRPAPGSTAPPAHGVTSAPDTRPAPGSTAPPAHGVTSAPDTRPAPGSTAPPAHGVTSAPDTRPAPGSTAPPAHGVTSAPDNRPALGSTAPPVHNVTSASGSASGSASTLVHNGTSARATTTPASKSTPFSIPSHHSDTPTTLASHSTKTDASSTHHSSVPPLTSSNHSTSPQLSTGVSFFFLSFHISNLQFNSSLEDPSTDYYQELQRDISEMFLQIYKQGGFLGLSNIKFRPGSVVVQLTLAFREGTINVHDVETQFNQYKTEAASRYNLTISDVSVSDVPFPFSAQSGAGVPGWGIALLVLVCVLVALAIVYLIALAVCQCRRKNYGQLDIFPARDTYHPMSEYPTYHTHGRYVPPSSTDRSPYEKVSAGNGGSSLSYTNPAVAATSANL

MUC1 TRD-Tn (3), sequence (P15941 whole entry, looked up): as above
MUC1-ST (4), sequence (P15941 whole entry, looked up): as above

B1: SN-131 Fab (Fab, V domains shown)
VH: QVQLQQSGAELARPGASVKLSCKASGYTFTNYGLSWVKQRTGQGLEWIGENHPGSGIIYHNEKFRGKATLTADKSSSTAYVQLSSLTSEDSAVYFCARSSGTRGFAYWGQGTLVTVSA
VL: DVLMTQTPLSLPVSLGDQASISCRSSQSIVHSNGNTYLEWYLQKPGQSPKLLIYKVSNRFSGVPDRFSGSGSGTDFTLKISRVEAEDLGVYYCFQGSHGPWTFGGGTKLEIK
[1]
  koff: 0.000456 s⁻¹
[2]
  koff: 0.00144 s⁻¹
[3]
  Kd: 10.8 µM
  koff: 0.00225 s⁻¹
